Experimental data: patent US20190071490A1 (BETH ISRAEL DEACONESS MEDICAL CENTER, published 2019)
Ends that are not written are not given here.

Experiments:
[1] = target: antibody G1 Fab fragment; test: Biacore competition: 50 nM G1 Fab with 10 µM peptide over human α-CGRP on chip
From the text: (§1) Y axis represents percentage of binding blocked by the presence of the competing peptide compared with the binding in the absence of the competing peptide.
(§2) All these peptides are amidated at the C-terminus.

[2] = target: antibody G1 Fab fragment; test: Biacore competition: G1 Fab (50 nM) pre-incubated 1 h with 10 µM competing peptide, then flowed over N-biotinylated human α-CGRP on SA chip; percent of binding to chip-bound human α-CGRP blocked
From the text: as §1, §2

Chain of antibody G1 Fab fragment (VH, as listed by the source, chain 1 of 2): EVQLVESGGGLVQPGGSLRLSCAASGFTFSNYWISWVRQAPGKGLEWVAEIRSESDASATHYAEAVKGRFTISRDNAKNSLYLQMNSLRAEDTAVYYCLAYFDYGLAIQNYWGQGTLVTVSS
Chain of antibody G1 Fab fragment (VL, as listed by the source, chain 2 of 2): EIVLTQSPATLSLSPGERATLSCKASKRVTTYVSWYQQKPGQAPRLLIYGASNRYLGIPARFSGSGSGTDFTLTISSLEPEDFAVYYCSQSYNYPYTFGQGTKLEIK

B1: human α-CGRP 1-36-COOH (peptide)
peptide: ACDTATCVTHRLAGLLSRSGGVVKNNFVPTNVGSKA-OH
modifications: ends and bridges not checked
notes: also called 1-36 (not amidated at the C-terminus)
For B1, the “percentage of binding blocked” value [1] was about 40% and the “% Binding Blocked” value [2] was 40.6%.

With SGGVVKNNFVPTNVGSAAF-NH2 (also: N-terminal biotin when on the chip, the entry already carries K35A) [human α-CGRP K35A (19-37)] the “percentage of binding blocked” value [1] was 100% and the “% Binding Blocked” value [2] was 100%.

With SGGVVKNNFVPTNVGSEAF-NH2 (also: N-terminal biotin when on the chip, the entry already carries K35E) [human α-CGRP K35E (19-37)] the “percentage of binding blocked” value [1] was 100% and the “% Binding Blocked” value [2] was 100%.

For SGGVVKNNFVATNVGSKAF-NH2 (the entry already carries P29A) [human α-CGRP P29A (19-37)], the “percentage of binding blocked” value [1] was 100% and the “% Binding Blocked” value [2] was 100%.

SGGVVKNNFVPTNVGSMAF-NH2 (also: N-terminal biotin when on the chip, the entry already carries K35M) [human α-CGRP K35M (19-37)] was tested, and the “percentage of binding blocked” value [1] was 100% and the “% Binding Blocked” value [2] was 100%.

B2: rat α-CGRP (1-37) (peptide)
peptide: SCNTATCVTHRLAGLLSRSGGVVKDNFVPTNVGSEAF-NH2
modifications: ends and bridges not checked; also: N-terminal biotin when captured on the SA chip
notes: also called rat α (1-37); α-rat
In the case of B2, the “percentage of binding blocked” value [1] is reported as 100% and the “% Binding Blocked” value [2] is reported as 100%.
